Experimental data reported in patent US20220009992A1 (FRED HUTCHINSON CANCER CENTER, published 2022).

Biological target: peptide #10 (from the gene EHF) presented on peptide-pulsed T2 target cells (human, UniProt P61769 21-119)
Experiment: cell-based or functional assay

EC50 of peptide for IFN-γ production, ratio to the EC50 for Msln530: > 3000 fold (EC50 for peptide #10 over EC50 for Msln530)
B1: TCR Msln530-B11 (TCR, V domains shown)
V domain 1: ETGVTQSPTHLIKTRGQQVTLRCSSQSGHNTVSWYQQALGQGPQFIFQYYREEENGRGNFPPRFSGLQFPNYSSELNVNALELDDSALYLCASSFAGGRSDTQYFGPGTRLTVLE
V domain 2: KQEVTQIPAALSVPEGENLVLNCSFTDSAIYNLQWFRQDPGKGLTSLLLIQSSQREQTSGRLNASLDKSSGRSTLYIAASQPGDSATYLCAVRLLFAQGGSEKLVFGKGTKLTVNP
